Data as given in patent US20210196796A1 (SYNTHEKINE, published 2021).

T1: orthogonal hCD122 receptor (hoRb), hCD122 with H133D and Y134F (human, UniProt P14784 27-550)
T1 sequence: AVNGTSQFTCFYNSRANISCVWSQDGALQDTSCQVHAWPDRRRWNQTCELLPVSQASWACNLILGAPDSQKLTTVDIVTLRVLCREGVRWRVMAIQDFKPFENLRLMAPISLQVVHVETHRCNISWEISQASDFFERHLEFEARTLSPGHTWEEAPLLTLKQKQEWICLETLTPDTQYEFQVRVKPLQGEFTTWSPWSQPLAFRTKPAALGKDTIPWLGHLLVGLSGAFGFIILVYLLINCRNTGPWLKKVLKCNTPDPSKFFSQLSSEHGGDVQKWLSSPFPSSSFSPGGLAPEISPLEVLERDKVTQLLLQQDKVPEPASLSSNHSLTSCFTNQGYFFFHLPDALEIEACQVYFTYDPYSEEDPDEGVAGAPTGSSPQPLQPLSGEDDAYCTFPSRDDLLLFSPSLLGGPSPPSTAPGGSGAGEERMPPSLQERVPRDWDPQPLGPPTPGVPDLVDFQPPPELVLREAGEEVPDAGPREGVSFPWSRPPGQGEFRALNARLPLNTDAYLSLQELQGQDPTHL


Legend:
[1] = molecular target: T1, orthogonal hCD122 receptor (hoRb), …; test: cell-based or functional assay
[2] = molecular target: T1, orthogonal hCD122 receptor (hoRb), …; test: cell-based or functional assay; remark: listed apart in the source
Wherever Relative Proliferation Fold Change 3F8 1:10 is given: reference of the scale not given here.
Wherever Relative Proliferation Fold Change 3F8 1:2 is given: reference of the scale not given here.
Wherever Relative Proliferation Fold Change 3F8 1:50 is given: reference of the scale not given here.
Wherever Relative Proliferation Fold Change NKL 1:10 is given: reference of the scale not given here.
Wherever Relative Proliferation Fold Change NKL 1:2 is given: reference of the scale not given here.
Wherever Relative Proliferation Fold Change NKL 1:50 is given: reference of the scale not given here.

| Binder | 3F8 Ortho Proliferation Signal 1:2 [1] | 3F8 Ortho Proliferation Signal 1:10 [1] | 3F8 Ortho Proliferation Signal 1:50 [1] | Relative Proliferation Fold Change 3F8 1:2 [1] | Relative Proliferation Fold Change 3F8 1:10 [1] | Relative Proliferation Fold Change 3F8 1:50 [1] | NKL Ortho Proliferation Signal 1:2 [2] | NKL Ortho Proliferation Signal 1:10 [2] | NKL Ortho Proliferation Signal 1:50 [2] | Relative Proliferation Fold Change NKL 1:2 [2] | Relative Proliferation Fold Change NKL 1:10 [2] | Relative Proliferation Fold Change NKL 1:50 [2] |
| --- | --- | --- | --- | --- | --- | --- | --- | --- | --- | --- | --- | --- |
| ΔM23, SQVLK- (ligand) APTSSSTKKTQLQLSQLLVLLKILNGINNYKNPKLTRMLTFKFYMPKKATELKHLQCLEEELKPLEEVLNLAQSKNFHLRPRDLISNINVIVLELKGSETTFMCEYADETATIVEFLNRWITFCQSIISTLT | 6220 cts/min | 4410 cts/min | 2930 cts/min | 12.9 fold | 7.97 fold | 2.82 fold | 27600 | 19000 | 8950 | 2.87 fold | 1.43 fold | 0.73 fold |
| SQVLDA (ligand) APTSSSTKKTQLQLSQLLVLLDAILNGINNYKNPKLTRMLTFKFYMPKKATELKHLQCLEEELKPLEEVLNLAQSKNFHLRPRDLISNINVIVLELKGSETTFMCEYADETATIVEFLNRWITFCQSIISTLT | 33400 cts/min | 32300 cts/min | 19600 cts/min | 43 fold | 38.8 fold | 30.2 fold | 35100 | 22700 | 11600 | 2.55 fold | 1.65 fold | 0.95 fold |
| SQVLKY (ligand) APTSSSTKKTQLQLSQLLVLLKYILNGINNYKNPKLTRMLTFKFYMPKKATELKHLQCLEEELKPLEEVLNLAQSKNFHLRPRDLISNINVIVLELKGSETTFMCEYADETATIVEFLNRWITFCQSIISTLT | 39100 cts/min | 50600 cts/min | 24600 cts/min | 29.5 fold | 50 fold | 30.3 fold | 52400 | 43800 | 21900 | 3.51 fold | 2.64 fold | 1.38 fold |

Now from value to binder:

| 3F8 Ortho Proliferation Signal 1:2 [1] | 3F8 Ortho Proliferation Signal 1:10 [1] | 3F8 Ortho Proliferation Signal 1:50 [1] | Relative Proliferation Fold Change 3F8 1:2 [1] | Relative Proliferation Fold Change 3F8 1:10 [1] | Relative Proliferation Fold Change 3F8 1:50 [1] | NKL Ortho Proliferation Signal 1:2 [2] | NKL Ortho Proliferation Signal 1:10 [2] | NKL Ortho Proliferation Signal 1:50 [2] | Relative Proliferation Fold Change NKL 1:2 [2] | Relative Proliferation Fold Change NKL 1:10 [2] | Relative Proliferation Fold Change NKL 1:50 [2] | Binder |
| --- | --- | --- | --- | --- | --- | --- | --- | --- | --- | --- | --- | --- |
| 25700 cts/min | 17300 cts/min | 18700 cts/min | 39.9 fold | 14.6 fold | 13.7 fold | 44400 | 39200 | 18500 | 4 fold | 2.7 fold | 1.49 fold | SQVLKH (ligand) APTSSSTKKTQLQLSQLLVLLKHILNGINNYKNPKLTRMLTFKFYMPKKATELKHLQCLEEELKPLEEVLNLAQSKNFHLRPRDLISNINVIVLELKGSETTFMCEYADETATIVEFLNRWITFCQSIISTLT |
| 24100 cts/min | 15100 cts/min | 6550 cts/min | 0.46 fold | 10.9 fold | 5.95 fold | 26400 | 19400 | 7650 | 2.27 fold | 1.38 fold | 0.6 fold | SQVLTA (ligand) APTSSSTKKTQLQLSQLLVLLTAILNGINNYKNPKLTRMLTFKFYMPKKATELKHLQCLEEELKPLEEVLNLAQSKNFHLRPRDLISNINVIVLELKGSETTFMCEYADETATIVEFLNRWITFCQSIISTLT |
| 42100 cts/min | 48500 cts/min | 21000 cts/min | 42.8 fold | 48.8 fold | 17.4 fold | 65100 | 44700 | 23200 | 3.54 fold | 2.5 fold | 1.43 fold | SQVLKF (ligand) APTSSSTKKTQLQLSQLLVLLKFILNGINNYKNPKLTRMLTFKFYMPKKATELKHLQCLEEELKPLEEVLNLAQSKNFHLRPRDLISNINVIVLELKGSETTFMCEYADETATIVEFLNRWITFCQSIISTLT |
| 45700 cts/min | 64000 cts/min | 33100 cts/min | 31.1 fold | 20 fold | 29.5 fold | 74300 | 82000 | 49600 | 4.43 fold | 4.61 fold | 3.05 fold | SQVLKQ (ligand) APTSSSTKKTQLQLSQLLVLLKQILNGINNYKNPKLTRMLTFKFYMPKKATELKHLQCLEEELKPLEEVLNLAQSKNFHLRPRDLISNINVIVLELKGSETTFMCEYADETATIVEFLNRWITFCQSIISTLT |
| 40800 cts/min | 32600 cts/min | 20500 cts/min | 36 fold | 24.7 fold | 34.3 fold | 52000 | 36000 | 17900 | 3.55 fold | 2.52 fold | 1.33 fold | SQVLKW (ligand) APTSSSTKKTQLQLSQLLVLLKWILNGINNYKNPKLTRMLTFKFYMPKKATELKHLQCLEEELKPLEEVLNLAQSKNFHLRPRDLISNINVIVLELKGSETTFMCEYADETATIVEFLNRWITFCQSIISTLT |
